The record followed here is patent publication US20200209227A1.

Assay [1] concerns the target Calmodulin. As to the kind of experiment: BSI, free-solution binding signal; row repeated for a second PDB structure used in the model.
Assay [2] deals with Calmodulin. As to the kind of experiment: BSI, calmodulin-calcineurin assay, free solution.
Assay [3] concerns the target Calmodulin. As to the kind of experiment: BSI, free-solution binding signal.
Assay [4] addresses Calmodulin. Description: BSI; molar refractometry from the experimental phase shift at Bmax.
In assay [5] the target is Calmodulin. Description: BSI; molar refractometry; row repeated for a second PDB structure used in the model.

For the substance Calcineurin (enzyme), the BSI ΔRIU with Calmodulin [1] and with Calmodulin [3] was 0.00049 RIU each time. Further, the FreeSRF (binding) signal ΔRIU with Calmodulin [2] was 0.000441 RIU. The Experimental Chi (RIU/M) with Calmodulin [4] and with Calmodulin [5] was 46100 RIU/M each time.
